From article PMC12692543 come the findings set out here.

Assay [1] addresses rhFrizzled-4/FC Chimera (human) (UniProt Q9ULV1). Description: ELISA; rhFrizzled-4/Fc coated on a 96-well plate overnight; Norrin preparations as extracted from bacteria, BEFORE refolding, serially diluted (0.8–500 ng/mL) in 1% BSA or casein in PBS, 2 h; detected with biotinylated Norrin antibody and streptavidin–HRP; result as percent of a comparison control (R&D Systems Norrin).

Assay [2] has the same target. Description: ELISA; rhFrizzled-4/Fc coated on a 96-well plate overnight; Norrin preparations AFTER denaturation and refolding with disulfide reshuffling (GSH/GSSG, 1 M arginine), serially diluted (0.8–500 ng/mL) in 1% BSA or casein in PBS, 2 h; detected with biotinylated Norrin antibody and streptavidin–HRP; result as percent of a comparison control (R&D Systems Norrin).

For “MBP-linker-Norrin^K86P (intact, uncut fusion protein from plasmid construct Nor-w-Linker) (from UniProt Q00604 25-133)”, the percent of expected binding activity relative to comparison control (R&D Systems Norrin) in assay [1] was determined as 7%; in assay [2], 94%.

Take “Norrin^K86P released from MBP-linker-Norrin by HRV3C protease (from UniProt Q00604 25-133) (natural protein)”: the percent of expected binding activity relative to comparison control (R&D Systems Norrin) in assay [1] worked out at 14%; in assay [2] it was 101%.
